Test results published in US11760780B2, “Targeting dimerization of BAX to modulate BAX activity” (ALBERT EINSTEIN COLLEGE OF MEDICINE, priority 2014, dated 2023).
Positions of bridges follow the written chain, without caps; N, C: chain ends. Non-standard residues stand in square brackets, D forms with d. S5 = C=CCCC[C@](C)(N)C(=O)O

Experiments:
Assay type in all cases: biochemical
[1] = target: T1, BAX (Homo sapiens, UniProt Q07812); experiment: Liposomal permeabilization assay (ANTS/DPX release)
T1 construct: made in house; host or cells: E. coli BL21 (DE3) codon+
Description: (§1) Liposomes were composed of the following molar percentages of lipids (Avanti Polar Lipids): phosphatidylcholine, 48%; phosphatidylethanolamine, 28%; phosphatidylinositol, 10%; dioleoyl phosphatidylserine, 10%; and tetraoleoyl cardiolipin, 4% and were loaded with ANTS/DPX (Molecular Probe) upon extrusion. BAX (400 nM) was combined with BIM SAHBA2 at the indicated concentrations in 96-well format (Corning) and then liposomes were added (10 μl from 50 mM total lipid stock) in assay buffer (10 mM HEPES, pH 7, 200 mM KCl, 5 mM MgCl2, and 0.2 mM EDTA) to a final volume of 100 μl. ANTS/DPX release was quantified based on the increase in fluorescence intensity that occurs when the ANTS fluorophore is separated from the DPX quencher upon release from the liposomes into the supernatant. Fluorescence (λex=355 nm and λem=520 nm) was measured over time at 30° C. using a Tecan Infinite M1000 plate reader. The percentage release of ANTS/DPX at 90 min was calculated as percentage release=((F−F0)/(F100−F0))×100, where F0 and F100 are baseline and maximal fluorescence, respectively. 1% Triton treatment is used to determine the maximum amount of liposomal release per assay, and this value sets the 100% value.

[2] = target: T2, BAX (Homo sapiens, UniProt Q07812, P168G); experiment: as above; settings: purified BAX P168G dimer, increasing doses, maximum release at 90 min, FIG. 14B
T2 construct: made in house; host or cells: E. coli BL21 (DE3) codon+
Description: as §1

[3] = target: T3, BAX 4MA dimer (Homo sapiens, UniProt Q07812, C126S/C62S/I136C/V121C); experiment: BAX dimer dissociation / oligomerization by size exclusion chromatography; settings: FIG. 14A
T3 construct: made in house; host or cells: E. coli BL21 (DE3) codon+
Description: Superdex 75 10/300 GL and 200 10/300 GL (GE Healthcare) columns were used for size exclusion chromatography of recombinant proteins and cell extracts. Recombinant protein was injected in columns equilibrated with a buffer containing 20 mM HEPES pH 7.2, 150 mM KCl, 1 mM DTT. 1 mg of cytosolic or membrane extracts was applied to a Superdex 200 10/300 GL equilibrated in buffer containing 10 mM Tris, pH 7.5, 1 mM EGTA, 200 mM Sucrose and Complete Protease Inhibitors. Fractions of 500 μl were collected, and 30 μl of each fraction was analyzed by SDS-PAGE and immunoblotting. All operations were run at 4° C. Gel filtration molecular weight markers (GE Healthcare) were also subjected to the columns to obtain a standard curve for the estimation of the molecular weight of the proteins.
BAX wild type and mutants were concentrated to ˜0.5 mM in BAX buffer (10 mM HEPES pH 7, 150 mM KCl, 1 mM DTT) and incubated at 20° C. for 1-3 days before diluting to a total volume of 250 μl and loaded onto a Superdex 75 HR 10/30 size exclusion column (GE Healthcare). These conditions allow a controlled dimerization process than aggregation due to BAX activation. Separation of monomeric and dimeric BAX was achieved using a flow rate of 0.5 ml/min at 4° C. The chromatogram traces show the monomeric and dimeric peaks at ˜11.8 and ˜10.4 ml, respectively. […]

T1 sequence (Q07812 whole entry): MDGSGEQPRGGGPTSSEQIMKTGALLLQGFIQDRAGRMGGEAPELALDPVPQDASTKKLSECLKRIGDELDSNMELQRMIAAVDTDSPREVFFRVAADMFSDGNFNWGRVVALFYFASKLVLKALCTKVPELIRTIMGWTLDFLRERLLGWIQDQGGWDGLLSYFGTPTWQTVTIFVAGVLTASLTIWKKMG
T3 sequence (Q07812 whole entry C62S/V121C/C126S/I136C): as the sequence (Q07812 whole entry) above, with C62S, V121C, C126S, I136C counted along it
T2 sequence (Q07812 whole entry P168G): as the sequence (Q07812 whole entry) above, with P168G counted along it

Question: “N-acetylated^145EIWIAQELRS5IGDS5FNAYYA^164-CONH2 (Ac-EIWIAQELR[S5]IGD[S5]FNAYYA-NH2; staple 10-14; SMILES CC[C@H](C)[C@H](NC(=O)[C@H](Cc1c[nH]c2ccccc12)NC(=O)[C@@H](NC(=O)[C@H](CCC(=O)O)NC(C)=O)[C@@H](C)CC)C(=O)N[C@@H](C)C(=O)N[C@@H](CCC(N)=O)C(=O)N[C@@H](CCC(=O)O)C(=O)N[C@@H](CC(C)C)C(=O)N[C@@H](CCCNC(=N)N)C(=O)N[C@@]1(C)CCCC=CCCC[C@@](C)(C(=O)N[C@@H](Cc2ccccc2)C(=O)N[C@@H](CC(N)=O)C(=O)N[C@@H](C)C(=O)N[C@@H](Cc2ccc(O)cc2)C(=O)N[C@@H](Cc2ccc(O)cc2)C(=O)N[C@@H](C)C(N)=O)NC(=O)[C@H](CC(=O)O)NC(=O)CNC(=O)[C@H]([C@@H](C)CC)NC1=O) [BIM SAHBA2, Hydrocarbon-stapled peptide corresponding to the BH3 domain of BIM]” was tested. Which “membrane permeabilization by BAX dimer upon addition of activator” value ([1]; SEC-isolated BAX dimer, liposomes, FIG. 1D) did it give?
Answer: nearly inactive

Question: What about the “membrane permeabilization by BAX monomer upon addition of activator” value ([1]; SEC-isolated BAX monomer, liposomes, FIG. 1D) of the same substance?
Answer: activated and induced membrane permeabilization

Question: What about the “doses required to activate BAX WT dimer versus dose that fully activates BAX WT monomer” value ([1]; purified BAX WT dimer, maximum release at 90 min, FIG. 14B) of the same substance?
Answer: significantly higher

Question: What about the “activation of BAX P168G dimer compared to BAX WT dimer” value [2] of the same substance?
Answer: more resistant to activation

Question: What about the “activation of BAX 4MA monomer to induce BAX oligomerization” value ([3]; in the presence of reducing agent (DTT)) of the same substance?
Answer: can also activate BAX 4MA monomer to induce BAX oligomerization

Question: And the “competition and dissociation of BAX 4MA dimer to monomer” value ([3]; isolated BAX 4MA dimer, high doses, Superdex 75 SEC)?
Answer: can compete and dissociate the dimer into monomers
